Results: article PMC9352680, “A comprehensive thermodynamic model for RNA binding by the Saccharomyces cerevisiae Pumilio protein PUF4”

T1: PUF4 RNA-binding domain (Saccharomyces cerevisiae, UniProt P25339 537-888)
T1 sequence: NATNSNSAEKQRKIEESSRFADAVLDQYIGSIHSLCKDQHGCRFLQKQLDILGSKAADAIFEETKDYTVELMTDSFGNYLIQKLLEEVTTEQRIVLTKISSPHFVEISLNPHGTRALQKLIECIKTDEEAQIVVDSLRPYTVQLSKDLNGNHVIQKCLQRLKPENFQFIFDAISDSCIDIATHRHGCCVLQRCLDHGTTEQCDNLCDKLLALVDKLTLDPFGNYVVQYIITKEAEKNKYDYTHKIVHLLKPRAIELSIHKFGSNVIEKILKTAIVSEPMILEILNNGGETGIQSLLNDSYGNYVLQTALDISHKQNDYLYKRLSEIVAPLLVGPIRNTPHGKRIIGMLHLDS


Target: T1, PUF4 RNA-binding domain
Experiment: Mg; RNA-MaP; 20 mM Na-HEPES pH 7.4, 30 mM KOAc, 0.75 mM MgCl2, 0.1% Tween-20, 5% glycerol, 0.1 mg/mL BSA, 2 mM DTT; 25 C; 0.0125-409.6 nM protein
Conditions: tags: N-His6-TEV cleaved; C-SNAP kept, Cy3B-labelled; label: tethered on chip by stalled RNA polymerase

| Binder | Kd |
| --- | --- |
| ACAAACUGUCUUAUUAACAAAC (ssRNA) [Ia_S3_P5E.1_K5.1_C5.1_H5.1_[A4C]_A5.1_F5.1_T5.1] | 365 nM |
| ACAAACAGUAUAUAACAAAC (ssRNA) [Ia_S3_P3E.1_K3.1_C3.1_H3.1_[T1A]_A3.1_F3.1_T3.1] | 2000 nM |
| ACAAACAGUAUUAUUAACAAAC (ssRNA) [Ia_S3_P5E.1_K5.1_C5.1_H5.1_[T1A]_A5.1_F5.1_T5.1] | 1980 nM |
| Ib_S4_P3E.1_K3.1_C3.1_H3.1_[T1A]_A3.1_F3.1_[T7C]_T3.1 (ssRNA) RNA: UUUGACAACUGAUCGUUCUUUCUAGUAUACAUUCUUUCUCGAUCAGUUGUCUUU | > 2300 nM |
| Ib_S4_P3E.1_K3.1_C3.1_H3.1_[T1C]_A3.1_[T5A]_F3.1_T3.1 (ssRNA) RNA: UUUGACAACUGAUCGUUCUUUCUCGUAAAUAUUCUUUCUCGAUCAGUUGUCUUU | > 2300 nM |
| Ib_S4_P3E.1_K3.1_C3.1_H3.1_[G2C]_A3.1_F3.1_[T7C]_T3.1 (ssRNA) RNA: UUUGACAACUGAUCGUUCUUUCUUCUAUACAUUCUUUCUCGAUCAGUUGUCUUU | 610 nM |
| Ib_S4_P3E.1_K3.1_C3.1_H3.1_[T3C]_[A4C]_A3.1_F3.1_T3.1 (ssRNA) RNA: UUUGACAACUGAUCGUUCUUUCUUGCCUAUAUUCUUUCUCGAUCAGUUGUCUUU | > 2300 nM |
| Ib_S4_P3E.1_K3.1_C3.1_H3.1_[A4G]_A3.1_F3.1_[T7A]_T3.1 (ssRNA) RNA: UUUGACAACUGAUCGUUCUUUCUUGUGUAAAUUCUUUCUCGAUCAGUUGUCUUU | 35.5 nM |
| Ib_S4_P3E.1_K3.1_C3.1_H3.1_[G2A]_A3.1_F3.1_[T7A]_T3.1 (ssRNA) RNA: UUUGACAACUGAUCGUUCUUUCUUAUAUAAAUUCUUUCUCGAUCAGUUGUCUUU | > 2300 nM |
| Ic_S4_P3E.1_K3.1_C3.1_H3.1_A3.1_[A6T]_F3.1_[T7A]_T3.1 (ssRNA) RNA: UUUGACAACUGAUCGUUCUUUCUUGUAUUAAUUCUUUCUCGAUCAGUUGUCUUU | 82 nM |
| Ib_S4_P3E.1_K3.1_C3.1_H3.1_A3.1_[A6T]_F3.1_[T7C]_T3.1 (ssRNA) RNA: UUUGACAACUGAUCGUUCUUUCUUGUAUUCAUUCUUUCUCGAUCAGUUGUCUUU | 121 nM |
| Ib_S4_P3E.1_K3.1_C3.1_H3.1_[A4C]_A3.1_F3.1_[T7C]_T3.1 (ssRNA) RNA: UUUGACAACUGAUCGUUCUUUCUUGUCUACAUUCUUUCUCGAUCAGUUGUCUUU | > 2300 nM |
| Ib_S4_P3E.1_K3.1_C3.1_H3.1_A3.1_[T5A]_F3.1_[T7A]_T3.1 (ssRNA) RNA: UUUGACAACUGAUCGUUCUUUCUUGUAAAAAUUCUUUCUCGAUCAGUUGUCUUU | 262 nM |
| Ic_S4_P3E.1_K3.1_C3.1_H3.1_A3.1_[A6G]_F3.1_[A8T]_T3.1 (ssRNA) RNA: UUUGACAACUGAUCGUUCUUUCUUGUAUGUUUUCUUUCUCGAUCAGUUGUCUUU | 25.7 nM |
| Ib_S4_P3E.1_K3.1_C3.1_H3.1_A3.1_[A6T]_F3.1_[A8C]_T3.1 (ssRNA) RNA: UUUGACAACUGAUCGUUCUUUCUUGUAUUUCUUCUUUCUCGAUCAGUUGUCUUU | 28.4 nM |
| Ib_S4_P3E.1_K3.1_C3.1_H3.1_[T1C]_A3.1_[A6T]_F3.1_T3.1 (ssRNA) RNA: UUUGACAACUGAUCGUUCUUUCUCGUAUUUAUUCUUUCUCGAUCAGUUGUCUUU | > 2300 nM |
| Ib_S4_P3E.1_K3.1_C3.1_H3.1_[T1A]_A3.1_[A6C]_F3.1_T3.1 (ssRNA) RNA: UUUGACAACUGAUCGUUCUUUCUAGUAUCUAUUCUUUCUCGAUCAGUUGUCUUU | > 2300 nM |
| Ib_S4_P3E.1_K3.1_C3.1_H3.1_[T1G]_A3.1_[A6C]_F3.1_T3.1 (ssRNA) RNA: UUUGACAACUGAUCGUUCUUUCUGGUAUCUAUUCUUUCUCGAUCAGUUGUCUUU | > 2300 nM |
| Ib_S4_P3E.1_K3.1_C3.1_H3.1_[T1C]_[A4C]_A3.1_F3.1_T3.1 (ssRNA) RNA: UUUGACAACUGAUCGUUCUUUCUCGUCUAUAUUCUUUCUCGAUCAGUUGUCUUU | > 2300 nM |
| Ib_S4_P3E.1_K3.1_C3.1_H3.1_[T1A]_A3.1_[T5C]_F3.1_T3.1 (ssRNA) RNA: UUUGACAACUGAUCGUUCUUUCUAGUACAUAUUCUUUCUCGAUCAGUUGUCUUU | > 2300 nM |
| Ib_S4_P3E.1_K3.1_C3.1_H3.1_A3.1_[A6T]_F3.1_[A8T]_T3.1 (ssRNA) RNA: UUUGACAACUGAUCGUUCUUUCUUGUAUUUUUUCUUUCUCGAUCAGUUGUCUUU | 11.9 nM |
| Ib_S4_P3E.1_K3.1_C3.1_H3.1_[T3C]_A3.1_F3.1_[A8T]_T3.1 (ssRNA) RNA: UUUGACAACUGAUCGUUCUUUCUUGCAUAUUUUCUUUCUCGAUCAGUUGUCUUU | 1510 nM |
| Ib_S4_P3E.1_K3.1_C3.1_H3.1_[A4C]_A3.1_F3.1_[A8T]_T3.1 (ssRNA) RNA: UUUGACAACUGAUCGUUCUUUCUUGUCUAUUUUCUUUCUCGAUCAGUUGUCUUU | 289 nM |
| Ib_S4_P3E.1_K3.1_C3.1_H3.1_[T1A]_A3.1_[T5A]_F3.1_T3.1 (ssRNA) RNA: UUUGACAACUGAUCGUUCUUUCUAGUAAAUAUUCUUUCUCGAUCAGUUGUCUUU | > 2300 nM |
| Ib_S4_P3E.1_K3.1_C3.1_H3.1_[G2T]_A3.1_F3.1_[A8G]_T3.1 (ssRNA) RNA: UUUGACAACUGAUCGUUCUUUCUUUUAUAUGUUCUUUCUCGAUCAGUUGUCUUU | > 2300 nM |

| Binder | Kd |
| --- | --- |
| Ic_S4_P3E.1_K3.1_C3.1_H3.1_A3.1_[T5A]_F3.1_[A8G]_T3.1 (ssRNA) RNA: UUUGACAACUGAUCGUUCUUUCUUGUAAAUGUUCUUUCUCGAUCAGUUGUCUUU | 296 nM |
| Ib_S4_P3E.1_K3.1_C3.1_H3.1_[T1G]_A3.1_F3.1_[A8T]_T3.1 (ssRNA) RNA: UUUGACAACUGAUCGUUCUUUCUGGUAUAUUUUCUUUCUCGAUCAGUUGUCUUU | > 2300 nM |
| Ib_S4_P3E.1_K3.1_C3.1_H3.1_[T1G]_A3.1_[T5C]_F3.1_T3.1 (ssRNA) RNA: UUUGACAACUGAUCGUUCUUUCUGGUACAUAUUCUUUCUCGAUCAGUUGUCUUU | 1810 nM |
| Ib_S4_P3E.1_K3.1_C3.1_H3.1_[G2T]_[A4G]_A3.1_F3.1_T3.1 (ssRNA) RNA: UUUGACAACUGAUCGUUCUUUCUUUUGUAUAUUCUUUCUCGAUCAGUUGUCUUU | 3.32 nM |
| Ib_S4_P3E.1_K3.1_C3.1_H3.1_[G2C]_A3.1_F3.1_[A8C]_T3.1 (ssRNA) RNA: UUUGACAACUGAUCGUUCUUUCUUCUAUAUCUUCUUUCUCGAUCAGUUGUCUUU | > 2300 nM |
| Ib_S4_P3E.1_K3.1_C3.1_H3.1_[T1G]_[A4C]_A3.1_F3.1_T3.1 (ssRNA) RNA: UUUGACAACUGAUCGUUCUUUCUGGUCUAUAUUCUUUCUCGAUCAGUUGUCUUU | > 2300 nM |
| Ib_S4_P3E.1_K3.1_C3.1_H3.1_A3.1_[A6G]_F3.1_[T7C]_T3.1 (ssRNA) RNA: UUUGACAACUGAUCGUUCUUUCUUGUAUGCAUUCUUUCUCGAUCAGUUGUCUUU | 295 nM |
| Ib_S4_P3E.1_K3.1_C3.1_H3.1_A3.1_[A6G]_F3.1_[A8G]_T3.1 (ssRNA) RNA: UUUGACAACUGAUCGUUCUUUCUUGUAUGUGUUCUUUCUCGAUCAGUUGUCUUU | 38.2 nM |
| Ib_S4_P3E.1_K3.1_C3.1_H3.1_[G2C]_[A4T]_A3.1_F3.1_T3.1 (ssRNA) RNA: UUUGACAACUGAUCGUUCUUUCUUCUUUAUAUUCUUUCUCGAUCAGUUGUCUUU | 1800 nM |
| Ib_S4_P3E.1_K3.1_C3.1_H3.1_[G2A]_[A4G]_A3.1_F3.1_T3.1 (ssRNA) RNA: UUUGACAACUGAUCGUUCUUUCUUAUGUAUAUUCUUUCUCGAUCAGUUGUCUUU | 5.75 nM |
| Ib_S4_P3E.1_K3.1_C3.1_H3.1_[T3C]_[A4G]_A3.1_F3.1_T3.1 (ssRNA) RNA: UUUGACAACUGAUCGUUCUUUCUUGCGUAUAUUCUUUCUCGAUCAGUUGUCUUU | 1160 nM |
| Ib_S4_P3E.1_K3.1_C3.1_H3.1_[T1C]_A3.1_F3.1_[A8T]_T3.1 (ssRNA) RNA: UUUGACAACUGAUCGUUCUUUCUCGUAUAUUUUCUUUCUCGAUCAGUUGUCUUU | 645 nM |
| Ib_S4_P3E.1_K3.1_C3.1_H3.1_[T1G]_A3.1_[A6G]_F3.1_T3.1 (ssRNA) RNA: UUUGACAACUGAUCGUUCUUUCUGGUAUGUAUUCUUUCUCGAUCAGUUGUCUUU | 198 nM |
| Ic_S4_P3E.1_K3.1_C3.1_H3.1_A3.1_[T5A]_F3.1_[T7C]_T3.1 (ssRNA) RNA: UUUGACAACUGAUCGUUCUUUCUUGUAAACAUUCUUUCUCGAUCAGUUGUCUUU | 374 nM |
| Ib_S4_P3E.1_K3.1_C3.1_H3.1_[T1A]_A3.1_[A6G]_F3.1_T3.1 (ssRNA) RNA: UUUGACAACUGAUCGUUCUUUCUAGUAUGUAUUCUUUCUCGAUCAGUUGUCUUU | 225 nM |
| Ib_S4_P3E.1_K3.1_C3.1_H3.1_[G2C]_A3.1_F3.1_[A8T]_T3.1 (ssRNA) RNA: UUUGACAACUGAUCGUUCUUUCUUCUAUAUUUUCUUUCUCGAUCAGUUGUCUUU | 1640 nM |
| Ib_S4_P3E.1_K3.1_C3.1_H3.1_[T3C]_[A4T]_A3.1_F3.1_T3.1 (ssRNA) RNA: UUUGACAACUGAUCGUUCUUUCUUGCUUAUAUUCUUUCUCGAUCAGUUGUCUUU | 2120 nM |
| Ic_S4_P3E.1_K3.1_C3.1_H3.1_A3.1_[T5C]_F3.1_[A8C]_T3.1 (ssRNA) RNA: UUUGACAACUGAUCGUUCUUUCUUGUACAUCUUCUUUCUCGAUCAGUUGUCUUU | 9.55 nM |
| Ib_S4_P3E.1_K3.1_C3.1_H3.1_[G2C]_A3.1_F3.1_[T7A]_T3.1 (ssRNA) RNA: UUUGACAACUGAUCGUUCUUUCUUCUAUAAAUUCUUUCUCGAUCAGUUGUCUUU | > 2300 nM |
| Ib_S4_P3E.1_K3.1_C3.1_H3.1_[G2C]_[A4C]_A3.1_F3.1_T3.1 (ssRNA) RNA: UUUGACAACUGAUCGUUCUUUCUUCUCUAUAUUCUUUCUCGAUCAGUUGUCUUU | > 2300 nM |
| Ic_S4_P3E.1_K3.1_C3.1_H3.1_A3.1_[A6C]_F3.1_[A8T]_T3.1 (ssRNA) RNA: UUUGACAACUGAUCGUUCUUUCUUGUAUCUUUUCUUUCUCGAUCAGUUGUCUUU | 13.5 nM |
| Ib_S4_P3E.1_K3.1_C3.1_H3.1_[T1A]_[A4C]_A3.1_F3.1_T3.1 (ssRNA) RNA: UUUGACAACUGAUCGUUCUUUCUAGUCUAUAUUCUUUCUCGAUCAGUUGUCUUU | > 2300 nM |
| Ib_S4_P3E.1_K3.1_C3.1_H3.1_[G2C]_[A4G]_A3.1_F3.1_T3.1 (ssRNA) RNA: UUUGACAACUGAUCGUUCUUUCUUCUGUAUAUUCUUUCUCGAUCAGUUGUCUUU | 2.45 nM |
| ACAAACUAUAUAUUAACAAAC (ssRNA) [Ia_S3_P4E.1_K4.1_C4.1_H4.1_[G2A]_A4.1_F4.1_T4.1] | 33.9 nM |
